In article PMC3679108, “A Novel Glucagon-Related Peptide (GCRP) and Its Receptor GCRPR Account for Coevolution of Their Family Members in Vertebrates” (PLoS ONE, 2013):

Legend:
[1] = biological target: Xenopus GCRP receptor (Xenopus)
[2] = biological target: chicken GCRP receptor (chicken)
human GIPR (human) = human GIPR (human) (UniProt P48546)
human GIPR (human), sequence (P48546 22-466): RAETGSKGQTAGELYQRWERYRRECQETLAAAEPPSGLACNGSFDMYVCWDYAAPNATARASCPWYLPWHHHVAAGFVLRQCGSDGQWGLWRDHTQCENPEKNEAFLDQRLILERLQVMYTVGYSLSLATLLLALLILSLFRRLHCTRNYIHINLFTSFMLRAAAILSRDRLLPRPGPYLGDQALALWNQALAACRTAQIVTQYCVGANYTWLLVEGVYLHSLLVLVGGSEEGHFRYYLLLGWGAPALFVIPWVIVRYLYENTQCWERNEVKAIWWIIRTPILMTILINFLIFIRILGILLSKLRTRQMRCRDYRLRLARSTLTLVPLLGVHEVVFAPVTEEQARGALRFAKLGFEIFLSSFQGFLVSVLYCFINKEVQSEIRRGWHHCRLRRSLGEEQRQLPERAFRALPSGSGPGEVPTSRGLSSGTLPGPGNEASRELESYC

Human GCG (peptide), sequence (peptide): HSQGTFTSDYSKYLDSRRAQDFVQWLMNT
Human GLP1 (peptide), sequence (peptide): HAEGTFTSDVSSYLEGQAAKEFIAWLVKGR

CRE-luc reporter, HEK293T cells with the receptor: EC50 [1] [nM]	CRE-luc reporter, HEK293T cells with the receptor: Emax (fold induction) [1]	CRE-luc reporter, HEK293T cells with the receptor: EC50 [2] [nM]	CRE-luc reporter, HEK293T cells with the receptor: Emax (fold induction) [2]	Substance	CRE-luc reporter, HEK293T cells with the receptor: EC50 (human GIPR (human)) [nM]
391	35	120	6.24	Human GLP1 (peptide)	
				Exendin-4 (peptide)	100
49.4	32.7	35.3	6.3	Human GCG (peptide)	
